Measurements taken from patent publication US20020164620A1, “Method for identifying compounds modulating sister chromatid separation” (Boehringer Ingelheim International GmbH, priority 2001, published 2002).

Experiments:
[1] = system: human separase; experiment: SCC1 in vitro cleavage assay; format: biochemical; conditions: substance added to mitotically activated separase immunoprecipitates before SCC1-myc reaction mix
Method: (§1) 30 microliter beads were incubated with 40 μg bacterially expressed wildtype securin, destruction box deleted form of securin (Gmachl et al., 2000) or BSA diluted in XB+1 mM DTT for 40 min at RT. Subsequently the beads were washed with XB+1 mM DTT and with TBS+0.5 M NaCl+1 mM DTT+0.5% TWEEN20, followed by one wash with XB+1 mM DTT. To control the rebinding of securin an aliquot of 5 μl was taken per assay and subsequently analysed by immunoblotting with antibodies against separase and securin.
The beads were used for the SCC1 in vitro cleavage assay: 20 μl beads were mixed with 30 μl of the following SCC1 in vitro translation mix (SCC1 myc IVT+1 μl PLK-GST+0.3 μl […], 0.3 μl 100 mM ATP, 0.12 μl 250 mM EGTA, 13.78 μl XB+1 mM DTT) and incubated at 22° C. and 1200 rpm. 5 μl were taken per time point, the reaction was stopped by addition of SDS loading buffer. Samples were analyzed by immunoblotting with mouse monoclonal antibodies against myc (9E10).
(§2) B. Separase immunoprecipitates were incubated with 100 μM Biotin-SVEQGR-amk or with DMSO prior mitotic activation. Incubation for 10 minutes, 22° C. and 1000 rpm. After washing twice in XB+1 mM DTT the activation was performed in mitotic Xenopus egg extracts.
Interphase Xenopus egg extracts were driven into mitosis in the presence of 1 mM Biotin-SVEQGR-amk or DMSO. […]
Target sequence in this assay (Q14674 1536-2120 limits assumed): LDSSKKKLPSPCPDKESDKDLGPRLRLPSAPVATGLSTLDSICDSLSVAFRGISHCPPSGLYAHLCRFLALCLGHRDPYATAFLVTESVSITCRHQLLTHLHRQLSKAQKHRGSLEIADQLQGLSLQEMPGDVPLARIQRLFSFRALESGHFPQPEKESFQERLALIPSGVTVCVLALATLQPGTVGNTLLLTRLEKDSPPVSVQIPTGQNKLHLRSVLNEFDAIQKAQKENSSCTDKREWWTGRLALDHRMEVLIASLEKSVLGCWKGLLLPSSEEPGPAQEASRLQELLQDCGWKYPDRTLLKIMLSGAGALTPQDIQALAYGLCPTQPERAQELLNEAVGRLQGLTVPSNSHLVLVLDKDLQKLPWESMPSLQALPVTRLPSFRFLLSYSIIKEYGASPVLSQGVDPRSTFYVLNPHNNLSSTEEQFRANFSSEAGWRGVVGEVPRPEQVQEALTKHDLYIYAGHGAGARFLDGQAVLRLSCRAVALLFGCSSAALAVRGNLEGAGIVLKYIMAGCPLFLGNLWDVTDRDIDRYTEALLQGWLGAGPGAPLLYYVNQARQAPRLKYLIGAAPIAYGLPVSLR

[2] = system: human separase; experiment: Rebinding of recombinant securin to mitotically activated separase immunoprecipitates; format: binding; conditions: separase activated in mitotic Xenopus extracts, mostly cleaved form
Method: as §1
Target sequence in this assay (Q14674 1-1486 limits assumed): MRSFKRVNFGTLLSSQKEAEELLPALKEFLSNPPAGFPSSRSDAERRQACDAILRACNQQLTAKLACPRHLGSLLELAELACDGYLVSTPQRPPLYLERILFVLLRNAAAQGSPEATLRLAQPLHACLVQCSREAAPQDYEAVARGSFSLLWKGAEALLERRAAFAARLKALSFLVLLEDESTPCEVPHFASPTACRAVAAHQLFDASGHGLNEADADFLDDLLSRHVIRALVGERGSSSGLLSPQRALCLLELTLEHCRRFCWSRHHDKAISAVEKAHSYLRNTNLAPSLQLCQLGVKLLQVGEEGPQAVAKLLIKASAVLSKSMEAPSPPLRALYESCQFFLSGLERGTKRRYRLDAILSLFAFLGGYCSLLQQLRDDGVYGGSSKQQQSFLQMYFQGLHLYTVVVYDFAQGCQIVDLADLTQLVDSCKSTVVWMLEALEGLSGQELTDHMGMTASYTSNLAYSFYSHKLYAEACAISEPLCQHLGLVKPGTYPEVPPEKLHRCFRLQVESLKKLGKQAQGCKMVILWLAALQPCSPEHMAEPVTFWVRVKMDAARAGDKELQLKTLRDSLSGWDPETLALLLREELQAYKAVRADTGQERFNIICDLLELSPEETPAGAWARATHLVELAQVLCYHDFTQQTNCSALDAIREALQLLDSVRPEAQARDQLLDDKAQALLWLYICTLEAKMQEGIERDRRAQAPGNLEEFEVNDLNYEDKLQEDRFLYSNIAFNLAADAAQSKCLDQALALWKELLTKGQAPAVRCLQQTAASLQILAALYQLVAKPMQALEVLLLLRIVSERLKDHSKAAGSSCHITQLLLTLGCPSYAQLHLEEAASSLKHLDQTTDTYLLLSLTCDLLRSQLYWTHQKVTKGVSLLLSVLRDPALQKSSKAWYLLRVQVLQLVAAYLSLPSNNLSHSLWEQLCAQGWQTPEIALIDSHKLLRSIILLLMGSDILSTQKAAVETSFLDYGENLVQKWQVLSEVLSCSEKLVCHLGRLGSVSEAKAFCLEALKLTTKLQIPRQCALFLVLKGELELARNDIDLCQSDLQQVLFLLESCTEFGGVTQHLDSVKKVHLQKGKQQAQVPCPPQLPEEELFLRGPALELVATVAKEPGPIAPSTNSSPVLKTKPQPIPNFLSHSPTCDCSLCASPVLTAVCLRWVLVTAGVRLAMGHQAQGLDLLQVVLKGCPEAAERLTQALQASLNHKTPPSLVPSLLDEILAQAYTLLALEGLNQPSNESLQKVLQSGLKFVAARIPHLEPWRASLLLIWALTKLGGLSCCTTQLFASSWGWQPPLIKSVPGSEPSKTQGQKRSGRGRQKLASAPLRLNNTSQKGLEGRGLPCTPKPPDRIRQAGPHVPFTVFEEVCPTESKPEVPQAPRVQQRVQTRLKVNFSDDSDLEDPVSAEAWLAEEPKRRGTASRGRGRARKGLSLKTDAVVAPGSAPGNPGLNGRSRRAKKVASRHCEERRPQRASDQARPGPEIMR
Target sequence in this assay (Q14674 1536-2120 limits assumed): as the sequence (Q14674 1536-2120 limits assumed) above
FIG. 1A: Separase immunoprecipitates (separase IP) obtained from Nocodazole arrested HeLa cells and bound by antibodies against the C-terminus of separase coupled to beads were activated in mitotic Xenopus egg extracts (separase IP^mitotic). Mitotically activated separase immunoprecipitates were either incubated in buffer, wildtype securin, destruction box deleted securin or in BSA. Aliquots were taken and analysed by immunoblotting with antibodies against separase and securin.

[3] = system: human separase; experiment: Covalent labelling of separase forms by biotin peptide (avidin blot); format: binding; conditions: recombinant securin bound to cleaved active separase, then human peptide inhibitor (FIG. 4D)
Method: as §2
Target sequence in this assay (Q14674 1536-2120 limits assumed): as above
Interphase Xenopus egg extracts were driven into mitosis in the presence of 1 mM Biotin-SVEQGR-amk or DMSO. Those mitotic Xenopus egg extracts were used to activate a batch of separase immunoprecipitates.
Biotin labeled peptides were detected via immunoblotting according to Faleiro et al., 1997.
C. […] After 10 min incubation at 22° C. and 1250 rpm beads were again washed and analyzed by immunoblotting.
FIG. 4B: Separase IPs (see A) were either preincubated with Biotin-SVEQGR-amk (preinc. with inh. peptide) or with DMSO (preinc. with DMSO), subsequently washed and aliquots were taken. […] All samples were analysed by immunoblotting with avidin.
FIG. 4D: Activated separase immunoprecipitates bound by antibodies against the C-terminus of separase to beads were first incubated with recombinant securin or, for control, with recombinant truncated cyclinB. […] Thereafter, the immunoprecipitates were again washed and analyzed by immunoblotting.

SCC1 cleavage by separase [1]: no cleavage of SCC1 was detected
binding of securin to separase [2]: able to bind to separase
B1: WT-securin: human securin expressed in E. coli and purified, the wildtype protein (protein)
chain: MATLIYVDKENGEPGTRVVAKDGLKLGSGPSIKALDGRSQVSTPRFGKTFDAPPALPKATRKALGTVNRATEKSVKTKGPLKQKQPSFSAKKMTEKTVKAKSSVPASDDAYPEIEKFFPFNPLDFESFDLPEEHQIAHLPLSGVPLMILDEERELEKLFQLGPPSPVKMPSPPWESNLLQSPSSILSTLDVELPPVCCDIDI
binding of peptide inhibitors to the active site of separase [3]: prevented the binding of peptide inhibitors to the active site of separase
